# Laboratory results published in patent US20210395390A1 (Bayer, published 2021).
# Positions count from the first letter of the chain named.
# B1: TPP-9251 (antibody, human IgG1, lambda, V domains shown)
# VH: EVQLLESGGGLVQPGGSLRLSCAASGFTFSNYGIHWVRQAPGKGLEWVSAIGTGGDTYYADSVTGRFTISRDNSKNTLYLQMNSLRAEDTAVYYCARDRGYYDILTGLYDYWGQGTLVTVSS
# VL: QSVLTQPPSASGTPGQRVTISCSGSSSNIGNNYVNWYQQLPGTAPKLLIYGNYHRPSGVPDRFSGSKSGTSASLAITGLQAEDEADYYCSSYAGSNNWVFGGGTKLTVLG
# B2: TPP-9238 (antibody, human IgG1, lambda, V domains shown)
# VH: B1 VH with T64M
# VL: B1 VL
# B3: TPP-9258 (antibody, human IgG1, lambda, V domains shown)
# VH: B1 VH with N31S, I34M, T64Q
# VL: B1 VL
# Target: anti-FXIa antibody 076D-M007-H04-CDRL3-N110D
# Experiment: cell-based or functional assay
aPTT 1.5 X [µM],biochemical FXIa assay IC 50 [nM],plasma based assay IC 50 [nM],Binder
0.06,0.2,6,B1
0.1,0.5,10,B2
0.1,0.5,7,B3
